According to US20260193363A1 (US Dept. of Health and Human Services, published 2026):

What was measured:
[1] = target: T1, EGFR overexpressed on cancer cell lines MDA-MB-468 and A431 (human, UniProt P00533 25-1210); experiment: flow cytometry, antibodies added at 2 µg/ml, A431 cells
T1 construct: whole, on cells; also called overexpressed EGFR; cancer-expressed EGFR

[2] = target: T2, wild-type EGFR extracellular domain, His-tagged (human, UniProt P00533 25-645); experiment: ELISA, hybridoma supernatant on His-tagged ECD on nickel-coated 96-well plate, OD450
T2 construct: extracellular domain; also called wtEGFR-His; EGFRwt ECD

[3] = target: T1, EGFR overexpressed on cancer cell lines …; experiment: flow cytometry, antibodies added at 2 µg/ml, MDA-MB-468 cells
[4] = target: T3, EGFRvIII on F98npEGFRvIII cells (rat glioma F98 transfected with nonphosphorylated EGFRvIII); experiment: flow cytometry, antibodies added at 2 µg/ml, F98-npEGFRvIII cells
T3 construct: whole, on cells; also called F98-EGFRvIII

[5] = target: T2, wild-type EGFR extracellular domain, …; experiment: ELISA, purified antibody on His-tagged ECD, OD450
[6] = target: EGFRvIII on DKMG-EGFRvIII cells (human glioblastoma line DKMG transduced with EGFRvIII); experiment: cell-based or functional assay
[7] = target: T4, EGFRvIII extracellular domain, His-tagged (human); experiment: BLI (Octet Red96), His-tagged antigen on Ni-NTA biosensors, antibody in solution, 30 C
T4 construct: extracellular domain; also called EGFRvIII-His; EGFRvIII-HIS

[8] = target: T5, wtEGFR at physiological levels on WI-38 cells (human, UniProt P00533 25-1210); experiment: flow cytometry, antibodies added at 2 µg/ml, WI-38 cells
T5 construct: whole, on cells; also called normal cells

[9] = target: T6, wild-type EGFR on F98EGFR cells (rat glioma F98 transfected with full-length EGFR) (UniProt P00533 25-1210, limits assumed); experiment: flow cytometry, antibodies added at 2 µg/ml, F98-EGFR cells
T6 construct: whole, on cells; also called wtEGFR on transfected F98 cells

B1: monoclonal antibody 3D10 (antibody, V domains shown)
VH: QVQLKQSGPGLVQPSQSLSIICTVSGFSLTRNGVHWVRQSPGKGLEWVGVIWRSGRTDYDAAFMSRLSITKDNSKSQVFFKMNSLQADDTAIYYCVKNGDDGNYGTYWGQGTLVTVSA
VL: DIVMSQSPSSLGVSVGEKVTMSCKSSQSLLDSRNQKNYLAWYQQKPGQSPKLLIYWASTRESGVPDRFTGSGSGTEFTLTISSVKAEDLAIYYCQQYYNYPYTFGGGTKLEIT
Median : PE-A [1]: 196 | binding result [2]: no binding | Median : PE-A [3]: 205 | Median : PE-A [4]: 1420

B2: monoclonal antibody 9G11 (antibody, V domains shown)
VH: QVQLKQSGPGLVQPSQSLSITCTVSGFSLTRNGVHWVRQSPGKGLEWVGVIWRGGRTDYDAAFMSRLSITKDNSKSQVFFKMNSLQADDTAIYYCVKNGDDGNYGTYWGQGTLVTVSA
VL: DIVMSQSPSSLGVSVGEKVTMSCKSSQSLLDSRNQKNYLAWYQQKPGQSPKLLIYWASTRESGVPDRFTGSGSGTEFTLTISSVKAEDLAIYYCQQYYNYPYTFGGGTKLEIT
Median : PE-A [1]: 160 | binding result [5]: no binding (tested: 5 ng/ml) | Median : PE-A [3]: 166 | Median : PE-A [4]: 1010

B3: 40H3 MMAE antibody drug conjugate (antibody, V domains shown)
VH: QVQLKQSGPGLVQPSQSLSITCTVSGFSLTNYGIHWLRQSPGKGLEWLGMMWRGGGTDYNAAFISRLTITKDTSKSQVFFRMNNLQTNDTAIYYCARKGVGMGLGYWGQGTSVTVSS
VL: DIQMTQSPASQSASLGESVTITCLASQTIGTWVAWYQQKPGRSPQLLIYGATNLADGVPSRFSGSGSGTKFSFKISSLQAEDFVSYYCQQLYSNPYTFGGGTKLEIK
IC50 (nM), cell viability, DKMG EGFRvIII cells [6]: 1.9 nM

B4: 40H3 DM1 antibody drug conjugate (antibody, V domains shown)
VH: QVQLKQSGPGLVQPSQSLSITCTVSGFSLTNYGIHWLRQSPGKGLEWLGMMWRGGGTDYNAAFISRLTITKDTSKSQVFFRMNNLQTNDTAIYYCARKGVGMGLGYWGQGTSVTVSS
VL: DIQMTQSPASQSASLGESVTITCLASQTIGTWVAWYQQKPGRSPQLLIYGATNLADGVPSRFSGSGSGTKFSFKISSLQAEDFVSYYCQQLYSNPYTFGGGTKLEIK
IC50 (nM), cell viability, DKMG EGFRvIII cells [6]: 0.56 nM

B5: monoclonal antibody 40H3 (antibody, V domains shown)
VH: QVQLKQSGPGLVQPSQSLSITCTVSGFSLTNYGIHWLRQSPGKGLEWLGMMWRGGGTDYNAAFISRLTITKDTSKSQVFFRMNNLQTNDTAIYYCARKGVGMGLGYWGQGTSVTVSS
VL: DIQMTQSPASQSASLGESVTITCLASQTIGTWVAWYQQKPGRSPQLLIYGATNLADGVPSRFSGSGSGTKFSFKISSLQAEDFVSYYCQQLYSNPYTFGGGTKLEIK
notes: also called ma40H3 GS; 40H3 (full length antibody)
Kd [7]: 270 pM | koff [7]: 4.51e-05 s⁻¹ | kon [7]: 167000 M⁻¹ s⁻¹ | Median : PE-A [1]: 3160 | Median : PE-A [3]: 2140 | Median : PE-A [4]: 1120

B6: monoclonal antibody 11E11 (antibody, V domains shown)
VH: QVQLKQSGPSLVQPSQSLSITCTVSGFSLTNYGVHWIRQSPGKGLEWLGVKWRGGRTDYNAAFMSRLSITRDNSRSQVFFKMNSLQTDDTAIYYCAKNGPFGNFAGYWGQGTLVTVSA
VL: DIVMSQSPSSLAVSVGEKVSLTCKSSQSLLDNQKHYLAWYQQKPGQSPKLLIYWASTRESGVPDRFTGSGSGTEFTLTISSVKAEDLAVYYCQQFYNYPYTFGGGTKLEIK
Median : PE-A [1]: 274 | binding result [5]: no binding (tested: 5 ng/ml) | Median : PE-A [3]: 216 | Median : PE-A [4]: 1440

B7: monoclonal antibody 1D9 (antibody, V domains shown)
VH: QVQLKQSGRSLVQPSQSLSITCTVSGFSLTDYGVHWIRQSPGKGLEWLGVIWRSGRTDYNAVFMSRLSITKDNSKSQVFFKMNGLQTDDTAIYYCAKNGPFGNFAGYWGQGTPVAVSA
VL: DIVMSQSPSSLAVSVGEKVTMRCRSSQSLLDSYHQKNYLAWYLQKPGQSPKLLIYWASTRESGVPDRFTGSGSGTDFTLTISSVKAEDLAVYYCQEYYRYPYTFGGGTKLEIK
Median : PE-A [8]: 41.4 | Median : PE-A [1]: 136 | binding result [2]: no binding | Median : PE-A [3]: 166 | Median : PE-A [9]: 45.5 | Median : PE-A [4]: 1230

B8: monoclonal antibody 4A4 (antibody, V domains shown)
VH: QVQLKQSGRSLVQPSQSLSITCTVSGFSLTDYGVHWIRQSPGKGLEWLGVIWRSGRTDYNAVFMSRLSITKDNSKSQVFFKMNGLLIEDTAIYYCAKNGPFGNFAGYWGQGTPVAVSA
VL: DIVMSQSPSSLAVSVGEKVTMRCRSSQSLLDSYHQKNYLAWYLQKPGQSPKLLIYWASTRESGVPDRFTGSGSGTDFTLTISSVKAEDLAAYYCQEYYRYPYTFGGGTKLEIK
Median : PE-A [8]: 48 | Median : PE-A [1]: 83.3 | binding result [5]: no binding (tested: 5 ng/ml) | Median : PE-A [3]: 130 | Median : PE-A [9]: 41.7 | Median : PE-A [4]: 1110

B9: monoclonal antibody 11G3 (antibody, V domains shown)
VH: QVQLKQSGPSLVQPSQSLSITCTVSGFSLTNYGVHWVRQSPGKGLEWLGVMWRGGRTDYNAAFMSRLSITKDNSRSQVFFKMNSLQTDDAAIYYCAKNGPFGNFAGYWGQGTLVTVST
VL: DIVMSQSPSSLPVSVGEKVSLTCKSSRSLLDNQKHYLAWYQQKPGQSPKLLIYWASTRESGVPDRFTGSGSGTEFTLTISSVKAEDLAVYYCQQFYNYPYTFGGGTKLEIK
Median : PE-A [8]: 39.6 | Median : PE-A [1]: 90.3 | binding result [5]: no binding (tested: 5 ng/ml) | Median : PE-A [3]: 90.3 | Median : PE-A [9]: 37.9
